Tests used:
nude NMRI mice = assay: Observation of adverse effects in imaged mice; assay type: in vivo, mouse; settings: 10 nmol i.v., nude NMRI mice with U87MG xenografts, n = 5 per group
Experimental: (§1) 10 nmol of ICG-Glu-Glu-AE105 or ICG were administered to 5 mice each via tail vein injections. 15 h post injection the mice were anaesthetized with 2% isoflurane a full-body optical scan recorded using the acquisition mode outlined above.

[1] = test system: U87MG human glioblastoma xenograft tumors; assay: Optical imaging of U87MG xenograft mice 15 h post injection (tumour to background ratio); assay type: in vivo, mouse; settings: IVIS Lumina XR, 15 h post i.v. injection of 10 nmol; for Uptake in the tumor (in words): U87MG xenograft mice, n = 5
Experimental: All animal experiments were performed under a protocol approved by the Animal Research Committee of the Danish Ministry of Justice (2012-15-2934-00064). 5 ×10^6 U87MG cells were suspended in 200 ul PBS and inoculated in both flanks of 6 weeks old nude NMRI female mice (24–28 g; Taconic Europe, Lille Skensved, Denmark). All mice were housed in groups with 12 h light/dark cycle and food and water was available ad libitum. When the tumours reached approx. 500 mm^3 in size the mice were enrolled in the optical imaging protocol.
as §1
After imaging with IVIS Lumina XR the anesthetized mice were moved to a surgical table and real-time tumor imaging with a Fluobeam®800 NIR-camera was performed (Fluoptics, Grenoble, France). The camera was connected to a standard laptop to allow imaging, adjustments of camera functions and recording of images and video sequences. Fluobeam®800 works with a 800 nm excitation laser optimised for ICG imaging.
The TBR values were calculated as tumor-signal divided by background-signal by drawing a ROI over each tumor and place the background ROI in an area with constant background signal. Images from IVIS Lumina XR were processed in the software Living Image, while the images from Fluobeam®800 was processed in ImageJ.

[2] = target: Urokinase-type plasminogen activator receptor (uPAR) (human) (UniProt Q03405)
Urokinase-type plasminogen activator receptor (uPAR) (human), sequence (Q03405 23-305): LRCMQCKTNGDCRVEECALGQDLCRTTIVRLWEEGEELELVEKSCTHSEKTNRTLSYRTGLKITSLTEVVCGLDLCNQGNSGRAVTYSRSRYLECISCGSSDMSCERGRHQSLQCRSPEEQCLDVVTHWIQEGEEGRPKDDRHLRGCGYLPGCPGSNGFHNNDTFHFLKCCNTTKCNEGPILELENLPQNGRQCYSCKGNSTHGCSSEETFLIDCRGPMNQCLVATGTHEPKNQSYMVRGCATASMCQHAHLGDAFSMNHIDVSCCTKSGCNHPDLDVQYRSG

[3] = Plasma stability of ICG-Glu-Glu-AE105 by HPLC; assay type: in vitro ADME; settings: mouse plasma 150 μl, 5 μg in DMSO, 37°C, acetonitrile precipitation, HPLC absorbance area at 780 nm
Experimental: ICG-AE105 (5 μg in DMSO) was added to 150 μl mouse plasma and the solution was incubated at 37°C for either 0, 1, 5 or 30 minutes. After incubation, acetonitrile (200 μl) was added followed by centrifugation at 3500 rpm for 4 minutes. The supernatant was collected, diluted and passed through a 0.45 μm filter. The filtered solution was analyzed on a Dionex UltiMate 300 HPLC using an Onyx Monolithic column (Phenomenex, 50x4.6 mm) and with a flow of 1.5 ml/min. The HPLC mobile phase was 0.1% TFA in H2O:MeCN 90:10 (A) and 0.1% TFA in H2O:MeCN 10:90 (B) and the gradient program: 0–2 min 10% B, 2–20 min 10–100% B, 20–21 100% B, 21–23 min 100–10%B, 23–30 min 10% B.
Each plasma sample was analyzed by HPLC and the absorbance area at 780 nm was calculated. This value was compared to the standard sample and the plasma sample at 0 min to calculated the percentage of intact ICG-AE105 recovered in the supernatant (see Table 1).

[4] = In vitro comparison of fluorescence intensity of ICG and conjugated probe; assay type: physicochemical
Experimental: The UV-vis absorption spectra were recorded on a Perkin-Elmer Lambda 1050 UV/vis/NIR spectrometer double beam spectrometer using the HBC solvent as baseline. The spectra were recorded in 1 cm path length cuvettes with ICG and ICG-AE105 present in the 10–50 μM range. Excitation and emission spectra and lifetimes were measured using FluoroTime 300 (PicoQuant, Berlin, Germany) system. The spectra were measured through excitation at 725 nm using a Xe-lamp excitation source. The excitation and emission measurements were measured in 1 cm cuvettes at 90° with respect to the excitation light. In the fluorescence measurements the absorbance of the samples were below 0.1 at the maximum of the lowest energy absorption band to avoid inner filter effects. After each fluorescence measurement the absorption spectra were recorded in order to verify that no photobleaching of the sample had occurred during the fluorescence measurement. All excitation and fluorescence spectra were corrected for the wavelength-dependent sensitivity of the detection from 500–900 nm.

uPAR = uPAR (Homo sapiens, UniProt Q03405); assay: Surface plasmon resonance solution competition of the uPA•uPAR interaction (Biacore3000); settings: indirect solution competition for uPA binding, purified uPAR, non-linear regression, read-out: IC50 as competitive inhibitor of the uPA•uPAR interaction
Experimental: The IC50-value for ICG-Glu-GLU-AE105 as competitive inhibitor of the uPA•uPAR interaction was measured by surface plasmon resonance in a Biacore3000 assay platform as previously published. Subsequent fitting to the binding isotherms by non-linear regression provided the IC50-value.

[5] = target: T1, human uPAR in U87MG tumor tissue sections (Homo sapiens, UniProt Q03405); assay: Ex vivo fluorescent imaging and uPAR immunohistochemistry of tumor sections; settings: 4 μm paraffin tumor sections, Odyssey scanner 800 nm, antibody R2 against uPAR
T1 construct: Ex Vivo histology and fluorescence images of s.c. U87MG tumor tissue sections; from tissue; host or cells: s.c. U87MG human glioblastoma xenograft tumors grown in mice
T1 sequence (Q03405 23-335): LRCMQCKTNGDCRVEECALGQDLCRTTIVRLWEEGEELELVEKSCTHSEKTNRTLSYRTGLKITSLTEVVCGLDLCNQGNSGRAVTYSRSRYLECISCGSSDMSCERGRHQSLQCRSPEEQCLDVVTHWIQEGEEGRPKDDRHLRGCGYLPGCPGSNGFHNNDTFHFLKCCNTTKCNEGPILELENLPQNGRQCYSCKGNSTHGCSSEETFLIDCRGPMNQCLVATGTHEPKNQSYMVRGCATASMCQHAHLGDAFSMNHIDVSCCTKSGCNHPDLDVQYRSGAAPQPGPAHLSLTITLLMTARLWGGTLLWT
Experimental: Tissue was formalin fixed in 4% formaldehyde in 24 h and then embedded in paraffin. For all stainings a 4 μm slice tissue were used. Before any staining the sliced tissue were imaged with an Odyssey scanner (LI-COR Biosciences, Lincoln, Nebraska) at 800 nm.
The tissue was incubated for one hour at 60° before being deparaffinized. Thereafter, tissue was pre-treated with proteinase K (Dako, Glostrup, Denmark) for 6 min. The staining was performed with the Dako ARK kit, with the antibody R2 [24] against uPAR.

mean decrease of the max fluorescence signal of the xenograft tumours when 6.7 nmol uPA is injected together with 10 nmol probe, against probe alone [2] | IC50 (uPAR) | Molecule | Adverse effects observed in mice (nude NMRI mice) | Tumour to background ratio (TBR) ([1]; U87MG s.c. xenograft mice, n = 5 mice (n = 10 tumors), mean) | Uptake in the tumor (in words) [1] | Intact ICG-AE105 recovered from supernatant (%) Compared to standard ([3]; 0 min incubation) | Intact ICG-AE105 recovered from supernatant (%) Compared to standard ([3]; 1 min incubation) | Intact ICG-AE105 recovered from supernatant (%) Compared to standard ([3]; 1 min incubation, listed as ICG-AE105) | remaining at 1 min, 33 µg/mL ([3]; 1 min incubation, read-out: Intact ICG-AE105 recovered from supernatant (%) Compared to plasma sample at 0 min) | Intact ICG-AE105 recovered from supernatant (%) Compared to plasma sample at 0 min ([3]; 5 min incubation) | Intact ICG-AE105 recovered from supernatant (%) Compared to standard ([3]; 5 min incubation) | Intact ICG-AE105 recovered from supernatant (%) Compared to standard ([3]; 5 min incubation, listed as ICG-AE105) | Intact ICG-AE105 recovered from supernatant (%) Compared to plasma sample at 0 min ([3]; 30 min incubation) | Intact ICG-AE105 recovered from supernatant (%) Compared to standard ([3]; 30 min incubation) | Intact ICG-AE105 recovered from supernatant (%) Compared to standard ([3]; 30 min incubation, listed as ICG-AE105) | Decrease in fluorescence intensity of conjugated probe compared with ICG [4] | Co-localization of probe fluorescence with uPAR immunohistochemistry staining [5]
– | – | CC1(C)C(/C=C/C=C/C=C/C=C2\N(CCCCS(=O)(=O)O)c3ccc4ccccc4c3C2(C)C)=[N+](CCCCS(=O)(=O)[O-])c2ccc3ccccc3c21 [ICG, indocyanine green] | No adverse effects | 1.04±0.04 | No uptake | – | – | – | – | – | – | – | – | – | – | – | –
46.8% | – | ICG-Glu-Glu-AE105 (peptide) | – | – | – | – | – | – | – | – | – | – | – | – | – | – | –
– | 134 nM | CC(C)C[C@H](NC(=O)[C@H](Cc1ccc(O)cc1)NC(=O)[C@@H](CCCNC(=N)N)NC(=O)[C@@H](CO)NC(=O)[C@H](Cc1ccccc1)NC(=O)[C@H](CC1CCCCC1)NC(=O)[C@H](CC(=O)O)NC(=O)[C@H](CCC(=O)O)NC(=O)[C@H](CCC(=O)O)NC(=O)CCCCC[N+]1=C(C=CC=CC=CC=C2N(CCCCS(=O)(=O)[O-])c3ccc4ccccc4c3C2(C)C)C(C)(C)c2c1ccc1ccccc21)C(=O)N[C@@H](Cc1c[nH]c2ccccc12)C(=O)N[C@@H](CO)C(=O)O [ICG-Glu-Glu-AE105] | No adverse effects | – | high uptake | 97,2% | 92.3% | 92,3% | 95% | 89,3% | 86.7% | 86,7% | 84,1% | 81.7% | 81,7% | 2 fold | co-localization of the uPAR staining and the fluorescent probe signal was observed

— publication PMC4734687, “Peptide-Based Optical uPAR Imaging for Surgery: In Vivo Testing of ICG-Glu-Glu-AE105” (PLoS ONE, 2016)
